Assay results taken from the supplement of paper PMC10567573.

B1: KLHL14 (parent)
chain: WLYCYDPVMDVWARKQDMNTKRAI

Variants of: B1
Assay: protein stability index of a GFP-peptide fusion (GPS, HEK-293T) (PSI 1-6); higher = more stable
Conditions: c terminus: a fixed tail appended
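Further: lentivirally expressed fusions sorted by FACS into six bins by GFP to DsRed ratio, PSI derived from sequencing read proportions per bin multiplied by bin number.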

First: WLYCYDPVMIVWARKQDMNTKRAI [D10I]
Second: WLYCYDTVMDVWARKQDMNTKRAI [P7T]
The protein stability index of the first is higher: 1.8 for the first, 1.64 for the second.

Going from WLYCYDDVMDVWARKQDMNTKRAI [P7D] to WLYCYDNVMDVWARKQDMNTKRAI [P7N], the protein stability index falls from 2.28 to 1.84.

Compared with WLYCYDQVMDVWARKQDMNTKRAI [P7Q], WLYCYDIVMDVWARKQDMNTKRAI [P7I] is higher in protein stability index: 1.51 for the first, 1.93 for the second.

Going from WLYCYDRVMDVWARKQDMNTKRAI [P7R] to WLYCYDVVMDVWARKQDMNTKRAI [P7V], the protein stability index rises from 1.87 to 2.08.

First: WLYCYDGVMDVWARKQDMNTKRAI [P7G]
Second: WLYCYDYVMDVWARKQDMNTKRAI [P7Y]
The protein stability index of the first is lower: 1.94 for the first, 2.15 for the second.

Compared with WLYCYDMVMDVWARKQDMNTKRAI [P7M], WLYCYDHVMDVWARKQDMNTKRAI [P7H] is higher in protein stability index: 1.98 for the first, 2.1 for the second.

Compared with WLYCYDEVMDVWARKQDMNTKRAI [P7E], WLYCYDFVMDVWARKQDMNTKRAI [P7F] is higher in protein stability index: 1.88 for the first, 3.12 for the second.

First: WLYCYDKVMDVWARKQDMNTKRAI [P7K]
Second: WLYCYDAVMDVWARKQDMNTKRAI [P7A]
The protein stability index of the first is lower: 2.24 for the first, 2.87 for the second.

Compared with WLYCYDCVMDVWARKQDMNTKRAI [P7C], WLYCYDSVMDVWARKQDMNTKRAI [P7S] is lower in protein stability index: 2.33 for the first, 1.62 for the second.

Compared with WLYCYDPVMDSWARKQDMNTKRAI [V11S], WLYCYDPVMDHWARKQDMNTKRAI [V11H] is lower in protein stability index: 2.52 for the first, 1.61 for the second.

Going from WLYCYDPVMDPWARKQDMNTKRAI [V11P] to WLYCYDPVMDNWARKQDMNTKRAI [V11N], the protein stability index rises from 1.65 to 2.21.

First: WLYCYDPVMDMWARKQDMNTKRAI [V11M]
Second: WLYCYDPVMDCWARKQDMNTKRAI [V11C]
The protein stability index of the first is lower: 1.61 for the first, 1.91 for the second.

Compared with WLYCYDPVMDYWARKQDMNTKRAI [V11Y], WLYCYDPVMDQWARKQDMNTKRAI [V11Q] is higher in protein stability index: 1.92 for the first, 1.98 for the second.

Compared with WLYCYDPVMDEWARKQDMNTKRAI [V11E], WLYCYDPVMDTWARKQDMNTKRAI [V11T] is higher in protein stability index: 2.3 for the first, 2.32 for the second.

Going from WLYCYDPVMDDWARKQDMNTKRAI [V11D] to WLYCYDPVMDGWARKQDMNTKRAI [V11G], the protein stability index falls from 1.98 to 1.62.

First: WLYCYDPVMDFWARKQDMNTKRAI [V11F]
Second: WLYCYDPVMDKWARKQDMNTKRAI [V11K]
The protein stability index of the first is higher: 2.32 for the first, 1.95 for the second.

Compared with WLYCYDPVMDIWARKQDMNTKRAI [V11I], WLYCYDPVMDRWARKQDMNTKRAI [V11R] is higher in protein stability index: 1.43 for the first, 2.1 for the second.

Compared with WLYCYDPVMDWWARKQDMNTKRAI [V11W], WLYCYDPVMDAWARKQDMNTKRAI [V11A] is higher in protein stability index: 1.76 for the first, 1.93 for the second.

First: WLYCYDPVMDLWARKQDMNTKRAI [V11L]
Second: WLYCYDPVMDVWARKFDMNTKRAI [Q16F]
The protein stability index of the first is higher: 2.04 for the first, 1.85 for the second.

Compared with WLYCYDPVMDVWARKIDMNTKRAI [Q16I], WLYCYDPVMDVWARKRDMNTKRAI [Q16R] is higher in protein stability index: 1.81 for the first, 1.95 for the second.

Compared with WLYCYDPVMDVWARKYDMNTKRAI [Q16Y], WLYCYDPVMDVWARKEDMNTKRAI [Q16E] is higher in protein stability index: 1.69 for the first, 2.4 for the second.

First: WLYCYDPVMDVWARKMDMNTKRAI [Q16M]
Second: WLYCYDPVMDVWARKADMNTKRAI [Q16A]
The protein stability index of the first is higher: 2.5 for the first, 2.42 for the second.

Going from WLYCYDPVMDVWARKNDMNTKRAI [Q16N] to WLYCYDPVMDVWARKGDMNTKRAI [Q16G], the protein stability index rises from 2.16 to 2.25.

Going from WLYCYDPVMDVWARKKDMNTKRAI [Q16K] to WLYCYDPVMDVWARKVDMNTKRAI [Q16V], the protein stability index rises from 1.7 to 2.29.

First: WLYCYDPVMDVWARKDDMNTKRAI [Q16D]
Second: WLYCYDPVMDVWARKLDMNTKRAI [Q16L]
The protein stability index of the first is higher: 2.15 for the first, 1.72 for the second.

First: WLYCYDPVMDVWARKPDMNTKRAI [Q16P]
Second: WLYCYDPVMDVWARKCDMNTKRAI [Q16C]
The protein stability index of the first is higher: 1.85 for the first, 1.81 for the second.

First: WLYCYDPVMDVWARKSDMNTKRAI [Q16S]
Second: WLYCYDPVMDVWARKTDMNTKRAI [Q16T]
The protein stability index of the first is higher: 1.94 for the first, 1.83 for the second.

First: WLYCYDPVMDVWARKWDMNTKRAI [Q16W]
Second: WLYCYDPVMDVWARKHDMNTKRAI [Q16H]
The protein stability index of the first is higher: 2.7 for the first, 2.27 for the second.

Compared with WLYCYDPVMDVWYRKQDMNTKRAI [A13Y], WLYCYDPVMDVWCRKQDMNTKRAI [A13C] is lower in protein stability index: 1.87 for the first, 1.81 for the second.

Going from WLYCYDPVMDVWLRKQDMNTKRAI [A13L] to WLYCYDPVMDVWIRKQDMNTKRAI [A13I], the protein stability index rises from 1.97 to 2.18.

First: WLYCYDPVMDVWSRKQDMNTKRAI [A13S]
Second: WLYCYDPVMDVWRRKQDMNTKRAI [A13R]
The protein stability index of the first is higher: 2 for the first, 1.8 for the second.

Compared with WLYCYDPVMDVWMRKQDMNTKRAI [A13M], WLYCYDPVMDVWKRKQDMNTKRAI [A13K] is higher in protein stability index: 1.96 for the first, 2.52 for the second.

First: WLYCYDPVMDVWFRKQDMNTKRAI [A13F]
Second: WLYCYDPVMDVWNRKQDMNTKRAI [A13N]
The protein stability index of the first is lower: 1.57 for the first, 2.46 for the second.

First: WLYCYDPVMDVWVRKQDMNTKRAI [A13V]
Second: WLYCYDPVMDVWTRKQDMNTKRAI [A13T]
The protein stability index of the first is higher: 2.13 for the first, 2.1 for the second.

Compared with WLYCYDPVMDVWQRKQDMNTKRAI [A13Q], WLYCYDPVMDVWWRKQDMNTKRAI [A13W] is lower in protein stability index: 2.46 for the first, 2.44 for the second.

Going from WLYCYDPVMDVWHRKQDMNTKRAI [A13H] to WLYCYDPVMDVWGRKQDMNTKRAI [A13G], the protein stability index falls from 2.67 to 1.97.

Compared with WLYCYDPVMDVWDRKQDMNTKRAI [A13D], WLYCYDPVMDVWPRKQDMNTKRAI [A13P] is lower in protein stability index: 2.84 for the first, 1.82 for the second.

WLYCYDPVMDVWERKQDMNTKRAI [A13E] and WLYCYDPVMDVWALKQDMNTKRAI [R14L] are the same in protein stability index: 2.36 for the first, 2.36 for the second.

Going from WLYCYDPVMDVWAAKQDMNTKRAI [R14A] to WLYCYDPVMDVWAHKQDMNTKRAI [R14H], the protein stability index rises from 1.85 to 1.97.

Compared with WLYCYDPVMDVWANKQDMNTKRAI [R14N], WLYCYDPVMDVWAPKQDMNTKRAI [R14P] is higher in protein stability index: 1.77 for the first, 2.23 for the second.

Compared with WLYCYDPVMDVWAQKQDMNTKRAI [R14Q], WLYCYDPVMDVWACKQDMNTKRAI [R14C] is lower in protein stability index: 2.45 for the first, 1.75 for the second.

Compared with WLYCYDPVMDVWAWKQDMNTKRAI [R14W], WLYCYDPVMDVWASKQDMNTKRAI [R14S] is higher in protein stability index: 1.85 for the first, 1.88 for the second.

First: WLYCYDPVMDVWAFKQDMNTKRAI [R14F]
Second: WLYCYDPVMDVWATKQDMNTKRAI [R14T]
The protein stability index of the first is higher: 1.57 for the first, 1.54 for the second.

Compared with WLYCYDPVMDVWADKQDMNTKRAI [R14D], WLYCYDPVMDVWAIKQDMNTKRAI [R14I] is lower in protein stability index: 2.11 for the first, 1.84 for the second.

WLYCYDPVMDVWAGKQDMNTKRAI [R14G] and WLYCYDPVMDVWAYKQDMNTKRAI [R14Y] are the same in protein stability index: 1.81 for the first, 1.81 for the second.

Compared with WLYCYDPVMDVWAEKQDMNTKRAI [R14E], WLYCYDPVMDVWAKKQDMNTKRAI [R14K] is lower in protein stability index: 2.13 for the first, 1.9 for the second.

First: WLYCYDPVMDVWAMKQDMNTKRAI [R14M]
Second: WLYCYDPVMDVWAVKQDMNTKRAI [R14V]
The protein stability index of the first is lower: 1.93 for the first, 2.62 for the second.
